Test results reported in paper PMC11286415.

Experiments:
[1] = biological target: Trypanosoma brucei multi-aminoacyl-tRNA synthetase complex (MSC)-associated protein 3 (MCP3), wild type (Trypanosoma brucei); test: ITC; dimer to monomers: 250 uM WT MCP3 in the syringe injected into buffer in the cell (50 mM glycylglycine pH 8.0, 300 mM NaCl, 2 mM DTE); 13 injections of 1 uL, 25°C
[2] = biological target: Trypanosoma brucei multi-aminoacyl-tRNA synthetase complex (MSC)-associated protein 3 (MCP3), wild type (Trypanosoma brucei); test: SEC-MALS; 300 ug protein at 3 mg/mL in 100 uL; 30 mM Tris-HCl pH 8.0, 100 mM NaCl, 5 mM MgCl2, 2 mM DTT; incubated at 27°C for 1 h; Superdex 200 Increase 10/300 GL, 0.5 mL/min; no tRNA
[3] = test system: WT MCP3 (Trypanosoma brucei); test: ITC; settings: 1 mM Mg2+; unmodified in vitro transcript; ITC: 20 mM MOPS pH 7.8, 100 mM NaCl, 2 mM DTE, 1 mM MgCl2, 25 C, 30 uM protein in cell, 300 uM tRNA in syringe; SEC-MALS: preincubation 27 C, run at 4 C …
[4] = test system: ΔN MCP3 (Trypanosoma brucei); test: ITC; settings: unmodified in vitro transcript; ITC: 20 mM MOPS pH 7.8, 100 mM NaCl, 2 mM DTE, 1 mM MgCl2, 25 C, 30 uM protein in cell, 300 uM tRNA in syringe; SEC-MALS: preincubation 27 C, run at 4 C …

Row | Kd [1] [nM] | stoichiometry N [2] | Substance | Kd [3] [nM] | Kd [4] [nM]
1 | 2600 | 2 | Trypanosoma brucei multi-aminoacyl-tRNA synthetase complex (MSC)-associated protein 3 (MCP3), wild type (enzyme) | – | –
2 | – | – | tRNAAla | 1120 | –
3 | – | – | tRNAPro | 1050 | 809
